Source: patent US20170081647A1, “GENETIC DETECTION PLATFORM” (Pharmozyme, Inc., priority 2014, published 2017)

Assays:
[1] = target: T1, Taq polymerase (Thermus aquaticus, UniProt P19821, A391P/R392G/V390W); assay: Polymerase activity in the presence of a polymerase inhibitor (amplification reaction at 45° C.); format: biochemical
T1 construct: made in house; host or cells: E. coli Rosetta 2 (DE3), plasmid pET21-Biotin-His6-ABP-Taq
Method: The assay was fixed at a final volume of 100 μl, and contained reaction components at the following final concentrations: oligonucleotide of SEQ ID NO: 8; 40 μM, dNTPs; 200 μM (each), APS; 1.6 mM, ATP sulfurylase; 0.12 Units, D-Luciferin; 0.3 mM, and Luciferase; 3 μg.
FIG. 9 illustrates a luminescence assay that indicates the Taq polymerase activity. As shown in FIG. 9A and FIG. 9B, a time course is initially indicated with a lag phase, normally less than 2 minutes, followed by a linear increase in luminescence. The rate of luminescence increase (slope) defines the Taq polymerase activity.
Hot Start Taq DNA polymerase was obtained from New England BioLabs (NEB). Taq polymerase from New England BioLabs was tested as a control. An amplification reaction was performed to determine the activity of Bio-HIS-ABS-Taq in the presence of human serum albumin (HSA) at 45° C. and to compare the activity of Bio-HIS-ABS-Taq in the presence of HSA with Hot Start Taq polymerase (NEB). The ratio of Bio-HIS-ABS-Taq to HSA is 1:1. Table 2 illustrates the activity of Bio-HIS-ABS-Taq in the presence of HSA compared to the activity of Hot Start Taq Polymerase from NEB.

[2] = target: human serum albumin (HSA), P02768
[3] = Protamine-based method optimization: Qubit protein remaining; conditions: protamine beads
Method: For protamine attachment, NHS-activated Sepharose beads were utilized and coupling was performed in 0.1 M HEPES buffer (pH 7.0), with a protein to bead ratio of 25 mg of the protein to 1 ml bead suspension (0.5 ml packed), pre-washed with 1 mM HCl. Attachment of protamine to beads was completed by leaving the suspension on rotation overnight at 4° C., followed by washing with 0.1 M Tris (pH 8.5), to block any remaining NHS groups on beads. The procedure ensured overall coverage of Sepharose beads with the highly charged protamine molecules.
DNA contaminant removal was accomplished using 15 μl of packed protamine-Sepharose beads per mg Taq polymerase, in 0.05 M sodium acetate, 0.2 M potassium chloride, pH 5.0. After leaving on rotation for 10 minutes, the suspension was centrifuged for 3 minutes at 1000×g, and the supernatant containing the enzyme was tested for DNA contamination, using a Qubit quantitation system.
pH Optimization: pH at 4.4, 4.75, 5.5, 6, and 7.7 were tested. Buffers used for adjusting the pH included acetate pH 4, acetate pH 5, MES pH 6, HEPES pH 7, and Tris pH 8. In each tube, 4 ul of the protamine bead slurry (protamine from Sigma-Aldrich) was used, 10 ul of buffer, 7 ul of 3.5 M KCl, and 140 ul of the buffer exchanged Bio-HIS-ABS-Taq polymerase. The initial concentrations of the polymerase and DNA contaminant were 0.478 mg/mL and 65.3 ng/mL, respectively.
Table 4 illustrates the final concentrations of the Bio-HIS-ABS-Taq polymerase and DNA contaminant from a second set of experiment. The initial concentrations of the polymerase and DNA contaminant were 0.55 mg/mL and 65.3 ng/mL, respectively.
Table 5 illustrates the final concentrations of the Bio-HIS-ABS-Taq polymerase and DNA contaminant from an experiment that modulates the salt concentration. The initial concentrations of the polymerase and DNA contaminant were 0.487 mg/mL and 82.9 ng/mL, respectively.

[4] = relative to Control #2 (Taq, NEB)
[5] = KCl 0.145 M, initial polymerase 0.487 mg/mL
[6] = KCl 0.194 M, initial polymerase 0.487 mg/mL
[7] = KCl 0.242 M, initial polymerase 0.487 mg/mL
[8] = KCl 0.291 M, initial polymerase 0.487 mg/mL
[9] = KCl 0.340 M, initial polymerase 0.487 mg/mL
[10] = pH 4.4, initial polymerase 0.478 mg/mL
[11] = pH 4.75, initial polymerase 0.478 mg/mL
[12] = pH 5.5, initial polymerase 0.478 mg/mL
[13] = pH 6, initial polymerase 0.478 mg/mL
[14] = pH 7.7, initial polymerase 0.478 mg/mL
[15] = second set, pH 4.03, initial polymerase 0.55 mg/mL
[16] = second set, pH 4.22, initial polymerase 0.55 mg/mL
[17] = second set, pH 4.40, initial polymerase 0.55 mg/mL
[18] = second set, pH 4.80, initial polymerase 0.55 mg/mL

Control #1 (Taq, NEB): Taq polymerase from New England BioLabs, tested as a control
% activity ([1]; Bio-HIS-ABS-Taq to HSA 1:1, relative to Control #1 (Taq, NEB)): 100% | % activity [1, 4]: 100%

Hot Start (NEB): Hot Start Taq DNA polymerase obtained from New England BioLabs (NEB)
% activity [1, 4]: 91%

B1: Bio-HIS-ABS-Taq polymerase (protein)
chain: MASSLRQILDSQKIEWRSNAGGASHHHHHHGGASLAEAKVLANRELDKYGVSDYHKNLINNAKTVEGVKDLQAQVVESAKKARISEATDGLSDFLKSQTPAEDTVKSIELAEAKVLANRELDKYGVSDYYKNLINNAKTVEGVKALIDEILAALPGTFAHYMDPNLEALFQGPNSLPLFEPKGRVLLVDGHHLAYRTFHALKGLTTSRGEPVQAVYGFAKSLLKALKEDGDAVIVVFDAKAPSFRHEAYGGYKAGRAPTPEDFPRQLALIKELVDLLGLARLEVPGYEADDVLASLAKKAEKEGYEVRILTADKDLYQLLSDRIHVLHPEGYLITPAWLWEKYGLRPDQWADYRALTGDESDNLPGVKGIGEKTARKLLEEWGSLEALLKNLDRLKPAIREKILAHMDDLKLSWDLAKVRTDLPLEVDFAKRREPDRERLRAFLERLEFGSLLHEFGLLESPKALEEAPWPPPEGAFVGFVLSRKEPMWADLLALAAARGGRVHRAPEPYKALRDLKEARGLLAKDLSVLALREGLGLPPGDDPMLLAYLLDPSNTTPEGWPGRYGGEWTEEAGERAALSERLFANLWGRLEGEERLLWLYREVERPLSAVLAHMEATGVRLDVAYLRALSLEVAEEIARLEAEVFRLAGHPFNLNSRDQLERVLFDELGLPAIGKTEKTGKRSTSAAVLEALREAHPIVEKILQYRELTKLKSTYIDPLPDLIHPRTGRLHTRFNQTATATGRLSSSDPNLQNIPVRTPLGQRIRRAFIAEEGWLLVALDYSQIELRVLAHLSGDENLIRVFQEGRDIHTETASWMFGVPREAVDPLMRRAAKTINFGVLYGMSAHRLSQELAIPYEEAQAFIERYFQSFPKVRAWIEKTLEEGRRRGYVETLFGRRRYVPDLEARVKSVREAAERMAFNMPVQGTAADLMKLAMVKLFPRLEEMGARMLLQVHDELVLEAPKERAEAVARLAKEVMEGVYPLAVPLEVEVGIGEDWLSAKE
% activity [2]: 73%

B2: Bio-HIS-ABS-Taq polymerase: Taq polymerase with N-terminal biotin-tag, His6 and albumin-binding protein fusion (SEQ ID NO: 1), expressed in E. coli (protein)
chain: MASSLRQILDSQKIEWRSNAGGASHHHHHHGGASLAEAKVLANRELDKYGVSDYHKNLINNAKTVEGVKDLQAQVVESAKKARISEATDGLSDFLKSQTPAEDTVKSIELAEAKVLANRELDKYGVSDYYKNLINNAKTVEGVKALIDEILAALPGTFAHYMDPNLEALFQGPNSLPLFEPKGRVLLVDGHHLAYRTFHALKGLTTSRGEPVQAVYGFAKSLLKALKEDGDAVIVVFDAKAPSFRHEAYGGYKAGRAPTPEDFPRQLALIKELVDLLGLARLEVPGYEADDVLASLAKKAEKEGYEVRILTADKDLYQLLSDRIHVLHPEGYLITPAWLWEKYGLRPDQWADYRALTGDESDNLPGVKGIGEKTARKLLEEWGSLEALLKNLDRLKPAIREKILAHMDDLKLSWDLAKVRTDLPLEVDFAKRREPDRERLRAFLERLEFGSLLHEFGLLESPKALEEAPWPPPEGAFVGFVLSRKEPMWADLLALAAARGGRVHRAPEPYKALRDLKEARGLLAKDLSVLALREGLGLPPGDDPMLLAYLLDPSNTTPEGWPGRYGGEWTEEAGERAALSERLFANLWGRLEGEERLLWLYREVERPLSAVLAHMEATGVRLDVAYLRALSLEVAEEIARLEAEVFRLAGHPFNLNSRDQLERVLFDELGLPAIGKTEKTGKRSTSAAVLEALREAHPIVEKILQYRELTKLKSTYIDPLPDLIHPRTGRLHTRFNQTATATGRLSSSDPNLQNIPVRTPLGQRIRRAFIAEEGWLLVALDYSQIELRVLAHLSGDENLIRVFQEGRDIHTETASWMFGVPREAVDPLMRRAAKTINFGVLYGMSAHRLSQELAIPYEEAQAFIERYFQSFPKVRAWIEKTLEEGRRRGYVETLFGRRRYVPDLEARVKSVREAAERMAFNMPVQGTAADLMKLAMVKLFPRLEEMGARMLLQVHDELVLEAPKERAEAVARLAKEVMEGVYPLAVPLEVEVGIGEDWLSAKE
modifications: N-terminal biotin; Synthetic polypeptide Bio-HIS-ABS-Taq polymerase
% protein remaining (comp to buffer exch) [3, 5]: 105% | Qubit protein remaining [3, 5]: 0.513 mg/mL | % protein remaining (comp to buffer exch) [3, 6]: 101% | Qubit protein remaining [3, 6]: 0.495 mg/mL | % protein remaining (comp to buffer exch) [3, 7]: 99.9% | Qubit protein remaining [3, 7]: 0.487 mg/mL | % protein remaining (comp to buffer exch) [3, 8]: 70% | Qubit protein remaining [3, 8]: 0.339 mg/mL | % protein remaining (comp to buffer exch) [3, 9]: 55% | Qubit protein remaining [3, 9]: 0.271 mg/mL | % protein remaining (comp to buffer exch) [3, 10]: 97% | Qubit protein remaining [3, 10]: 0.462 mg/mL | % protein remaining (comp to buffer exch) [3, 11]: 60% | Qubit protein remaining [3, 11]: 0.288 mg/mL | % protein remaining (comp to buffer exch) [3, 12]: 61% | Qubit protein remaining [3, 12]: 0.292 mg/mL | % protein remaining (comp to buffer exch) [3, 13]: 64% | Qubit protein remaining [3, 13]: 0.308 mg/mL | % protein remaining (comp to buffer exch) [3, 14]: 75% | Qubit protein remaining [3, 14]: 0.360 mg/mL | % protein remaining (comp to buffer exch) [3, 15]: 94% | Qubit protein remaining [3, 15]: 0.459 mg/mL | % protein remaining (comp to buffer exch) [3, 16]: 95% | Qubit protein remaining [3, 16]: 0.486 mg/mL | % protein remaining (comp to buffer exch) [3, 17]: 96% | Qubit protein remaining [3, 17]: 0.505 mg/mL | % protein remaining (comp to buffer exch) [3, 18]: 93% | Qubit protein remaining [3, 18]: 0.497 mg/mL
